Laboratory results taken from CN107011436A.
Values joined by “and” are separate entries in the source; they are usually repeats but may differ in a detail not shown here. Equal values may be shown once. Read-outs that look alike come from different tables or passages of the source.

Legend:
纯化的H7N9病毒HA蛋白 (H7N9病毒) [1] = assay: ELISA, HA-coated plate, expression supernatant diluted 1:40, anti-human Fc-HRP
纯化的H7N9病毒HA蛋白 (H7N9病毒) [2] = target: 纯化的H7N9病毒HA蛋白 (H7N9病毒)
纯化的H7N9病毒HA蛋白 (H7N9病毒) [3] = assay: ELISA, HA-coated plate, expression supernatant diluted 1:160, anti-human Fc-HRP
纯化的H7N9病毒HA蛋白 (H7N9病毒) [4] = assay: ELISA, HA-coated plate, expression supernatant diluted 1:20, anti-human Fc-HRP
纯化的H7N9病毒HA蛋白 (H7N9病毒) [5] = assay: ELISA, HA-coated plate, expression supernatant diluted 1:320, anti-human Fc-HRP
纯化的H7N9病毒HA蛋白 (H7N9病毒) [6] = assay: ELISA, HA-coated plate, expression supernatant diluted 1:640, anti-human Fc-HRP
纯化的H7N9病毒HA蛋白 (H7N9病毒) [7] = assay: ELISA, HA-coated plate, expression supernatant diluted 1:80, anti-human Fc-HRP
[8] = target: H7N9病毒Wuxi-01病毒株的HA蛋白 (H7N9病毒); assay: cell-based or functional assay
[9] = target: H7N9病毒Nanjing-06病毒株的HA蛋白 (H7N9病毒); assay: cell-based or functional assay
[10] = target: H7N9病毒Suzhou-03病毒株的HA蛋白 (H7N9病毒); assay: cell-based or functional assay
[11] = target: H7N9病毒Wuxi-02病毒株的HA蛋白 (H7N9病毒); assay: cell-based or functional assay

B1: 抗H7N9病毒的单克隆抗体mAb6137 (antibody, V domains shown)
VH: EVQLVESGGGLVQPGRSLRLSCAASGFIFDDYAMHWVRQAPGKGLEWVSGISWNNNNRAYADSVKGRFTISRDSAKNSLYLQMNSLRAEDTALYYCAKDILSLNMVRGGDEYYGIDVWGQGTTVTVSS
VL: DIQLTQSPSSLSASVGDRVTITCQASQDINNYLNWYQQKPGKAPKLLIFDASNLETGVPSRFSGSGSGTDFTFTISSLQPEDIATYYCQQYGSLLTFGGGTKVDIKR
OD450 (纯化的H7N9病毒HA蛋白 (H7N9病毒) [1]): 1.91 OD450
OD450 (纯化的H7N9病毒HA蛋白 (H7N9病毒) [2]): 0.211 OD450 and 0.153 OD450
OD450 (纯化的H7N9病毒HA蛋白 (H7N9病毒) [3]): 0.971 OD450
OD450 (纯化的H7N9病毒HA蛋白 (H7N9病毒) [4]): 2.06 OD450
OD450 (纯化的H7N9病毒HA蛋白 (H7N9病毒) [5]): 0.584 OD450
OD450 (纯化的H7N9病毒HA蛋白 (H7N9病毒) [6]): 0.35 OD450
OD450 (纯化的H7N9病毒HA蛋白 (H7N9病毒) [7]): 1.37 OD450
中和100×TCID50病毒需要的抗体质量 [8]: 40 ng
中和100×TCID50病毒需要的抗体质量 [9]: 20 ng
中和100×TCID50病毒需要的抗体质量 [10]: 40 ng
中和100×TCID50病毒需要的抗体质量 [11]: 80 ng
